This is an account of results in US20240166754A1 (SYNTHEKINE, published 2024).

Substitutions are numbered along the chain they refer to.

To fix the notation:
T1: extracellular domain of mouse IL12RB1 (mIL12Rb1 ECD antigen) (mouse, UniProt Q60837 20-565)
T1 construct: also called murine IL12RB1
T1 sequence: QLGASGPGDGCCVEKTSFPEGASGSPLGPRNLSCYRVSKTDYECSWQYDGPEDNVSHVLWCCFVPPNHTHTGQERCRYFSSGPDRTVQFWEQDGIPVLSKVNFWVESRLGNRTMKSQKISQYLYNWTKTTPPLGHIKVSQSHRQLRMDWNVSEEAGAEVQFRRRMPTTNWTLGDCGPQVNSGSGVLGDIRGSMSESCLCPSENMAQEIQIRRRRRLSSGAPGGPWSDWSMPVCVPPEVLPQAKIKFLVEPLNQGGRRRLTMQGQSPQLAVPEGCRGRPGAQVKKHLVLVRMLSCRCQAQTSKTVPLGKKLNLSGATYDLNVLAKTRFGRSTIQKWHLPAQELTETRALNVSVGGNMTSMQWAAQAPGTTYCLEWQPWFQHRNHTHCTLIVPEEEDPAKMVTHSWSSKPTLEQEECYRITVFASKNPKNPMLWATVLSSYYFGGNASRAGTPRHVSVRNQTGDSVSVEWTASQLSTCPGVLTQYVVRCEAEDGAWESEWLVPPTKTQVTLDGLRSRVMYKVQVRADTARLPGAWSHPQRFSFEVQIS

B1: hIL12Rb1_VHH22 (VHH)
VHH: QVQLQESGGGSVQAGGSLRLSCTASGYTYSSAFMAWFRQAPGKEREGVAAIYTRDGGTVYADSVKGRFTISQDNAKNTLYLQMNSLKAEDTAMYYCAAKIPQPGRASLLDSQTYDYWGQGTQVTVSS
notes: Camel VHH
B2: hIL12Rb1_VHH20 (VHH)
VHH: B1 VHH with G57S, T58P, V64L, Y80H, A88P, Q102E, A106I, Q119H
notes: Camel VHH
B3: hIL12Rb1_VHH16 (VHH)
VHH: B1 VHH with I51M, M83I, N84H, S85T
notes: Camel VHH
B4: hIL12Rb1_VHH2 (VHH)
VHH: B1 VHH with T78I
notes: Camel VHH
B5: hIL12Rb1_VHH12 (VHH)
VHH: B1 VHH with A88P, I100M
notes: Camel VHH
B6: hIL12Rb1_VHH1 (VHH)
VHH: QVQLQESGGGSVQAGGSLRLSCVASGYGYCGYDMSWYRQAPGKEREFVALITSDRSISYEDSVKARFIISRDNAANTGYLDMTRLTPDDTAIYYCKTSAAARESSWCRSRYRVASWGQGTQVTVSS
notes: Camel VHH
B7: hIL12Rb1_VHH10 (VHH)
VHH: QVQLQESGGGSVQAGGSLRLSCAVSGYDYCGYDVRWYRQAPGKEREFVSGIDSDGSTSYADSVKGRFTISQDNAENTSYLHMFSLKPEDTAMYYCKTESPAGESAWCRNFRGMDYWGKGTQVTVSS
notes: Camel VHH
B8: hIL12Rb1_VHH11 (VHH)
VHH: B7 VHH
notes: Camel VHH
B9: hIL12Rb1_VHH7 (VHH)
VHH: B7 VHH with Q39R
notes: Camel VHH
B10: hIL12Rb1_VHH14 (VHH)
VHH: B7 VHH with Q39R
notes: Camel VHH
B11: hIL12Rb1_VHH19 (VHH)
VHH: B7 VHH with D52N, S99G
notes: Camel VHH
B12: hIL12Rb1_VHH15 (VHH)
VHH: B7 VHH with D52N
notes: Camel VHH
B13: mIL12Rb1_VHH1 (VHH)
VHH: B1 VHH
notes: Camel VHH
B14: mIL12Rb1_VHH18 (VHH)
VHH: B1 VHH with I51M, A88T
notes: Camel VHH
B15: mIL12Rb1_VHH22 (VHH)
VHH: B1 VHH with T78I
notes: Camel VHH
B16: mIL12Rb1_VHH6 (VHH)
VHH: B1 VHH with G57S, T58P, V64L, Y80H, A88P, Q102E, A106I, Q119H
notes: Camel VHH
B17: mIL12Rb1_VHH23 (VHH)
VHH: B1 VHH with A88P, I100M
notes: Camel VHH
B18: mIL12Rb1_VHH17 (VHH)
VHH: B1 VHH with I51M, M83I, N84H, S85T
notes: Camel VHH
B19: mIL12Rb1_VHH19 (VHH)
VHH: QVQLQESGGGSVQAGGFLRLSCVASGYGYCGYDMSWYRQVPGKEREFVALITSDRSVSYEDSVKGRFSISRDNAKNTAYLEMNRLTPDDTAIYYCKTSTAARENNWCRSRYRIASWGQGTQVTVSS
notes: Camel VHH
B20: mIL12Rb1_VHH20 (VHH)
VHH: B6 VHH with A40T, S56I, I57A, A65G, A75K, L85V, S104N
notes: Camel VHH
B21: mIL12Rb1_VHH8 (VHH)
VHH: B6 VHH with S17F, D54E, S56V, A65G, I68S, A75E, D81E, T83N
notes: Camel VHH
B22: mIL12Rb1_VHH15 (VHH)
VHH: B19 VHH with I92V, S115Y
notes: Camel VHH
B23: mIL12Rb1_VHH3 (VHH)
VHH: QVQLQESGGGSVQAGGSLRLSCVASGYSYCGYDMMWYRQAPGKEREFVALITSDYSIRYEDSVEGRFSISRDNAKNTGYLLMSNLTPADTAIYYCKTSTAARESSWCRSRYRVASWGQGTQVTVSS
notes: Camel VHH
B24: mIL12Rb1_VHH11 (VHH)
VHH: B23 VHH
notes: Camel VHH
B25: mIL12Rb1_VHH13 (VHH)
VHH: B23 VHH with S105G
notes: Camel VHH
B26: mIL12Rb1_VHH4 (VHH)
VHH: QVQLQESGGGSVQAGGSLRLSCAASRYTYTNNFMAWFRQAPGKEREGVAAIYTGDGYAYYFDSVKGRFTISQDNDKNMLYLQMNSLKPEDTAMYYCAAMERRSGRRRMTENAEYKYWGQGTQVTVSS
notes: Camel VHH
B27: mIL12Rb1_VHH12 (VHH)
VHH: B26 VHH with D62Y, K76E, S103I, R105T
notes: Camel VHH
B28: mIL12Rb1_VHH9 (VHH)
VHH: B6 VHH
notes: Camel VHH
B29: mIL12Rb1_VHH2 (VHH)
VHH: B7 VHH
notes: Camel VHH
B30: mIL12Rb1_VHH10 (VHH)
VHH: B7 VHH
notes: Camel VHH
B31: mIL12Rb1_VHH14 (VHH)
VHH: B7 VHH with D52N
notes: Camel VHH
B32: mIL12Rb1_VHH21 (VHH)
VHH: B7 VHH with Q39R
notes: Camel VHH
B33: mIL12Rb1_VHH7 (VHH)
VHH: B7 VHH with Q39R
notes: Camel VHH
B34: mIL12Rb1_VHH16 (VHH)
VHH: B7 VHH with D52N, S99G
notes: Camel VHH
B35: mIL12Rb1_VHH5 (VHH)
VHH: QVQLQESGGGSVQAGETLRLSCTVSGFTIDDSEMGWYRQAPGHECELVASGSSDDDTYYVDSVKGRFTISLDNAKNMVYLQMNSLKPEDTAVYYCATGPTYPPKDGDCAHWGQGTQVTVSS
notes: Camel VHH

One experiment deals with T2, extracellular domain of human IL12RB1 (hIL12Rb1 ECD antigen) (human, UniProt P42701 24-545).
T2 construct: also called IL12Rβ1; CD212
Kind of experiment: periplasmic extract ELISA on antigen-coated plate after phage biopanning. Here is the method: (§1) Upon completion of the biopanning of Example 3, three 96-well plates of individual phage clones were isolated in order to perform periplasmic extract ELISA (PE-ELISA) on IL12Rb1 coated plates to identify positive VHH binders that selectively bound IL12Rb1. A 96-well plate was coated with IL12Rb1 and PBS under the same conditions. Next, wells were blocked at 37° ° C. for 1 h. Then, 100 μl of extracted antibodies was added to each well and incubated for 1 h. Subsequently, 100 μl of anti-tag polyclonal antibody conjugated to HRP was added to each well and incubated at 37 °C for 1 h. Plates were developed with TMB substrate. The reaction was stopped by the addition of H2SO4. Absorbance at 450 nm was read on a microtiter plate reader. Antibodies with absorbance of the antigen-coated well at least threefold greater than PBS-coated control are VHHs that specifically bind to IL12Rb1. Positive clones were sequenced, and sequences analyzed to identify unique clonotypes.
In general terms: An ELISA detects its analyte on a solid surface through an enzyme-linked reagent.
As to B1, the binding result is given as “binds”.

Take B2: the binding result is “binds”.

B3: the binding result is listed as “binds”.

As to B4, the binding result is “binds”.

As for B5, the binding result was “binds”.

With B6, the binding result is listed as “binds”.

Turning to B7, the binding result was “binds”.

As for B8, the binding result is “binds”.

As for B9, the binding result is “binds”.

In the case of B10, the binding result is reported as “binds”.

In the case of B11, the binding result is reported as “binds”.

For the molecule B12, the binding result is given as “binds”.

In the next experiment the target is T1, extracellular domain of mouse IL12RB1 …. Described as above. Here is the method: as §1
Turning to B13, the binding result was “binds”.

On to B14, for which the binding result was “binds”.

Turning to B15, the binding result is “binds”.

As for B16, the binding result is “binds”.

On to B17, for which the binding result is “binds”.

Turning to B18, the binding result is on record as “binds”.

In the case of B19, the binding result is listed as “binds”.

As for B20, the binding result is “binds”.

Regarding B21, the binding result is “binds”.

For B22, the binding result is reported as “binds”.

B23: the binding result is on record as “binds”.

B24: the binding result is “binds”.

Regarding B25, the binding result was “binds”.

Regarding B26, the binding result is listed as “binds”.

For the molecule B27, the binding result is recorded as “binds”.

For the molecule B28, the binding result was “binds”.

Consider B29, for which the binding result was “binds”.

On to B30, for which the binding result is recorded as “binds”.

As to B31, the binding result is given as “binds”.

In the case of B32, the binding result is on record as “binds”.

On to B33, for which the binding result is reported as “binds”.

As to B34, the binding result is listed as “binds”.

With B35, the binding result is on record as “binds”.
